{"source": "patent US7728193B2", "about": "“Phytochrome-interacting protein and a use thereof” (Genomine Inc., priority 2004, dated 2010)", "key": {"[1]": {"experiment": "In vitro phosphatase assay: enzymatic activity of PAPP5 and its domain fragments on ρNPP", "type": "biochemical", "conditions": "in the presence of 100 μM arachidonic acid", "protocol": "In order to examine whether the inventive PAPP5 protein has enzymatic activity, an enzymatic assay was performed using […] ρ-nitrophenyl phosphate (ρNPP) as a substrate. First, the GST-PAPP5 fusion protein purified in Example <4-1> was prewarmed at 30° C. for 1 minute. The prewarmed enzyme solution was added to 100 μl of kinase/phosphatase (KP) buffer (20 mM Tris-HCl pH 7.5, 30 mM MgCl2, 1 mM EDTA, 1 mM EGTA, 0.1% β-mercaptoethanol, 0.1% ethanol) containing O-400 mM ρNPP to initiate a reaction. To examine the autohydrolysis of ρNPP at each substrate concentration, the GST-PAPP5 enzyme solution was not added to a control group. After reaction at 30° C. for 15 minutes, 900 μl of 0.25N NaOH was added to terminate the reaction. The absorbance at 410 nm was measured. After subtracting the absorbance value of the control reaction solution containing all the components except for the enzyme from that of the reaction solution containing the enzyme, the rate was calculated using a millimolar extinction coefficient (17.8) of ρ-nitrophenolate ions.\nThus, in order to confirm if PAPP5 also have this property, the present inventors examined the phosphatase activities of GST-PAPP5, GST-TPR and GST-PP2Ac in the same manner as in Example <6-1>. At this time, the concentration of ρNPP was 100 mM."}, "[2]": {"biological_target": "T1, phytochrome B (Arabidopsis thaliana, UniProt P14713)", "T1 sequence (P14713 1-1172)": "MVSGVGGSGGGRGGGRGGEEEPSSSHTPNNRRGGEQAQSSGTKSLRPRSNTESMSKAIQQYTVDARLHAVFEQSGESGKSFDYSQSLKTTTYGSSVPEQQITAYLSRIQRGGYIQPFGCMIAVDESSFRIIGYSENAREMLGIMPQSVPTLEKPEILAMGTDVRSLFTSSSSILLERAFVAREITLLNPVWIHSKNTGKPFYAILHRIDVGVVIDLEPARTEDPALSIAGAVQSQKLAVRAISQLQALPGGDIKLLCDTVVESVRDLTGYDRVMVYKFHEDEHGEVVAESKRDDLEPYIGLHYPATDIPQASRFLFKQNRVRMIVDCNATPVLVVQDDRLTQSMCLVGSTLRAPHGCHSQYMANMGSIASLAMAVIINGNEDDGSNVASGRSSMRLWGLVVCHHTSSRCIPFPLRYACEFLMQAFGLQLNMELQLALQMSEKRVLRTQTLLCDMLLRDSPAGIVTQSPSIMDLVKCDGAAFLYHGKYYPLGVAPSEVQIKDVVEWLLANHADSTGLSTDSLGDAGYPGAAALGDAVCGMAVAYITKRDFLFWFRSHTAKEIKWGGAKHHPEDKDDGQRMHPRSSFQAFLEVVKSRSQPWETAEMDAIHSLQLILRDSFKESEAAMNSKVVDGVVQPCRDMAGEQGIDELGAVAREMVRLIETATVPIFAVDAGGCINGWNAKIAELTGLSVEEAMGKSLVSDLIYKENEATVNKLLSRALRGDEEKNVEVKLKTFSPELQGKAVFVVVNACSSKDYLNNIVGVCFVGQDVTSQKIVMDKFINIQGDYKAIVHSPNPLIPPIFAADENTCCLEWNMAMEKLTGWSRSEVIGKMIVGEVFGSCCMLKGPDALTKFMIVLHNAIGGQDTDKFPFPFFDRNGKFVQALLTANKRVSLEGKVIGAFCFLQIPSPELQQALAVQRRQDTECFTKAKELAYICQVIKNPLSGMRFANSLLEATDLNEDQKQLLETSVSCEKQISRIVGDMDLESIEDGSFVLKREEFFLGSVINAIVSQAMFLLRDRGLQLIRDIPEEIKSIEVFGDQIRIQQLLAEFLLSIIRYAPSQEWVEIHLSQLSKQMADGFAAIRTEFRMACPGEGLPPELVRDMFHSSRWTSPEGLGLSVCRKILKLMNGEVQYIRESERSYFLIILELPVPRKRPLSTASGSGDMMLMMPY", "T1 sequence (Q84XU2 1-484 isoform Q84XU2-2 partner)": "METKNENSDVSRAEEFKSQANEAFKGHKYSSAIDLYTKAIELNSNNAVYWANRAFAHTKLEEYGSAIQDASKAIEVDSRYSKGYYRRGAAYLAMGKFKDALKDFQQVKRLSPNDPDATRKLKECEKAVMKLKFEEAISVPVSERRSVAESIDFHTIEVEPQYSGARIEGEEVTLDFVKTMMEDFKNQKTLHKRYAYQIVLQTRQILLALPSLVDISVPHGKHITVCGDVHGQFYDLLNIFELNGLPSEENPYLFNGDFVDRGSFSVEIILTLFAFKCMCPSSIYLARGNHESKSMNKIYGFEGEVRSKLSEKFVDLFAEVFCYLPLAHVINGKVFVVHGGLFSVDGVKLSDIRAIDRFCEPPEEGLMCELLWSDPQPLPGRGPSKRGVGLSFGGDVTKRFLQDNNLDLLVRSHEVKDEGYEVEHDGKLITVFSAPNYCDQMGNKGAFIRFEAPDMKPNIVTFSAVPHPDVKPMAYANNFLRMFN", "experiment": "In vitro binding assay (GST pull-down of 35S-labeled TnT protein)", "conditions": "1 μg GST-PAPP5 fusion protein, 4° C."}, "[3]": {"tested_on": "autophosphorylated oat phytochrome A", "experiment": "Dephosphorylation of autophosphorylated phytochrome by PAPP5 in vitro", "type": "biochemical", "conditions": "Rc 664 nm or FRc 748 nm irradiation for 5 minutes", "protocol": "First, KP buffer (20 mM Tris-HCl pH7.5, 30 mM MgCl2, 1 mM EDTA, 1 mM EGTA, 0.1% β-mercaptoethanol, 0.1% ethanol) containing 1 μg of purified oat phytochrome A (provided from Kumho Life and Environmental Science Laboratory, Korea) was set on ice and irradiated with Rc light output of 50 μmolS^−1m^−2 at 664 nm for 5 minutes. Then, the reaction solution was allowed to react with [γ-^32P]ATP in dark conditions for 30 minutes (autophosphorylation of phytochrome A). Following addition of 1 μg of each of the fusion proteins GST-PAPP5, GST-TPR and GST-PP2Ac prepared in Examples <4-1> and <5-1>, the reaction continued for more 30 minutes, and then stopped by adding 12 μl of 5× Tris-glycine SDS sample buffer under dim green safe light.\nNext, the present inventors investigated whether the phosphatase activity of PAPP5 depends on a change in the spectroscopic structure (photoconversion) of phytochrome molecules (Pr⇄Pfr). KP buffer solution containing phytochrome was set on ice and irradiated with a Rc light output of 50 μmolS^−1m^−2 at 664 nm (conversion of phytochrome into Pfr form) or a FRc light output of 50 μmolS^−1m^−2 at 748 nm (conversion of phytochrome into […]) for 5 minutes. Then, the autophosphylation/dephosphorylation test of phytochrome was performed in the same manner as described above."}}, "data": [{"substance": "PAPP5: type 5 serine/threonine protein phosphatase of Arabidopsis thaliana interacting with phytochromes, SEQ ID NO: 4", "values": [{"measurement": "Km (Michaelis-Menten)", "setting": "[1]", "value": 160, "unit": "mM ρNPP"}, {"measurement": "Vmax (Michaelis-Menten)", "setting": "[1]", "value": 22, "unit": "μmmol Pi released/min/mg"}, {"measurement": "binding to phytochrome B", "setting": "[2]", "value": "has the property of binding"}, {"measurement": "dephosphorylation by PAPP5 according to the form of phytochrome (Pfr vs Pr)", "setting": "[3]", "value": "higher in Pfr phytochrome"}]}]}
